# Measured values published in patent US10017560.
# Legend:
# [1] = target: Tomato Leaf Curl Sudan Virus (ToLCSDV) purified viral particles (Tomato Leaf Curl Sudan Virus); assay: SPR single-cycle kinetics, ToLCSDV captured at 185 RU
# [2] = target: Tomato Leaf Curl Sudan Virus (ToLCSDV) purified viral particles (Tomato Leaf Curl Sudan Virus); assay: SPR single-cycle kinetics, ToLCSDV captured at 405 RU
# [3] = target: Tomato Leaf Curl Sudan Virus (ToLCSDV) purified viral particles (Tomato Leaf Curl Sudan Virus)
# [4] = target: Tomato Leaf Curl Sudan Virus (ToLCSDV) purified viral particles (Tomato Leaf Curl Sudan Virus); assay: SPR single-cycle kinetics, ToLCSDV captured at 310 RU
binder,measurement,setting,value
Nb-To2 (VHH) VHH: QVQLQESGGGSVQAGGSLRLSCVASGDTLRLCRMGWYRQAPGKGRELVSSMEIDGTTNYADSVKGRFTISQGDNRNTMYLQMNSLKPEDTAMYYCKMEGGYGGNCRLAIYNYWGQGTQVTVSS,Kd,[1],0.292 nM
same,koff,[1],0.00135 s⁻¹
same,kon,[1],4.65e+06 M⁻¹ s⁻¹
same,Kd,[2],0.432 nM
same,koff,[2],0.00161 s⁻¹
same,kon,[2],3.72e+06 M⁻¹ s⁻¹
same,A1 (% ToLCSDV Binding),[3],-0.842
same,A2 (% ToLCSDV Binding),[3],101
same,EC20 (dilution of the NbTo2 sample),[3],0.00459
same,EC80 (dilution of the NbTo2 sample),[3],0.000613
same,LOGx0 (log(dilution NbTo2)),[3],-2.78
same,p,[3],-1.38
same,span (% ToLCSDV Binding),[3],102
same,Kd,[4],0.374 nM
same,koff,[4],0.00151 s⁻¹
same,kon,[4],4.05e+06 M⁻¹ s⁻¹
